± gives the uncertainty stated by the source.
Assay: self-splicing fitness, log relative to wild type (ln ratio); higher = more splicing; Tetrahymena group I intron in knt gene, E. coli kanamycin selection, DiMSum; sequences stand for … in CUCUCU…GGAGGGAAAAGUUAUCAGGCAUGCACCUGGUAGCUAGUCUUUAAACCAAUAGAUUGCAUCGGUUUAAAAGGCAAGACCGUCAAAUUGCGGGAAAGGGGUCAACAGCCGUUCAGUACCAAGUCUCAGGGGAAACUUUGAGAUGGCCUUGCAAAGGGUAUGGUAAUAAGCUGACGGACAUGGUCCUAACCACGCAGCCAAGUCCUAAGUCAACAGAUCUUCUGUUGAUAUGGAUGCAGUUCACAGACUAAAUGUCGGUCGGGGAAGAUGUAUUCUUCUCAUAAGAUAUAGUCGGACCUCUCCUUAAUGGGAGCUAGCGGAUGAAGUGAUGCAACACUGGAGCCGCUGGGAACUAAUUUGUAUGCGAAAGUAUAUUGAUUAGUUUUGGAGUACUCGUGGUCG
Method in brief: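 DiMSum derived fitness as the error-weighted combination of fold changes across replicates, kanamycin versus no kanamycin, normalised to wild type. E. coli BL21(DE3) held the library, which randomised all eight P1ex-region intron nucleotides within the knt kanamycin-resistance gene on pET-22b(+). Six replicate transformations grew overnight at 37°C or 30°C on LB agar with or without 25 μg/mL kanamycin, also containing 100 μg/mL carbenicillin, 50 μM IPTG and 0.2% rhamnose, and pooled colonies were amplicon-sequenced on an Illumina HiSeq 2500.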

| Sequence | self-splicing fitness (ln) (30 °C) | self-splicing fitness (ln) (37 °C) |
| --- | --- | --- |
| GAUGAGCAAUAUUACGGCCU | -2.54 ± 0.18 | -1.98 ± 0.23 |
| GAUGAGCAAUAUUACGGUAC | -5.2 ± 0.36 | -2.2 ± 0.33 |
| GAUGAGCAAUAUUACGGUGC |  | -1.53 ± 0.28 |
| GAUGAGCAAUAUUACGUAAC | -1.63 ± 0.12 | -1.9 ± 0.3 |
| GAUGAGCAAUAUUACGUCCU |  | -1.84 ± 0.49 |
| GAUGAGCAAUAUUACGUCGA | -3.33 ± 0.35 | -2.68 ± 0.3 |
| GAUGAGCAAUAUUACGUGCG | -3.79 ± 0.17 | -1.8 ± 0.13 |
| GAUGAGCAAUAUUACGUGUC | -3.53 ± 0.31 |  |
| GAUGAGCAAUAUUACGUUGU |  | -1.69 ± 0.3 |
| GAUGAGCAAUAUUACGUUUU | -3.82 ± 0.22 | -2.72 ± 0.2 |
| GAUUAGCAAUAUUACGACAA | -0.938 ± 0.17 | -0.154 ± 0.14 |
| GAUUAGCAAUAUUACGACAG | -3.57 ± 0.29 | -1.1 ± 0.23 |
| GAUUAGCAAUAUUACGAGGA | -2.13 ± 0.29 | -2.08 ± 0.31 |
| GAUUAGCAAUAUUACGAGUA | -2.63 ± 0.17 | -0.695 ± 0.13 |
| GAUUAGCAAUAUUACGAUCG | -1.06 ± 0.11 | -0.387 ± 0.12 |
| GAUUAGCAAUAUUACGAUUA | -0.22 ± 0.1 | -0.0882 ± 0.092 |
| GAUUAGCAAUAUUACGCAAG | -2.11 ± 0.14 | -1.3 ± 0.13 |
| GAUUAGCAAUAUUACGCACU | -0.846 ± 0.15 | 0.415 ± 0.18 |
| GAUUAGCAAUAUUACGCCAA | -3.48 ± 0.31 | -1.91 ± 0.25 |
| GAUUAGCAAUAUUACGCCCU | -0.409 ± 0.49 |  |
| GAUUAGCAAUAUUACGCGAA | -3.47 ± 0.29 | -1.44 ± 0.21 |
| GAUUAGCAAUAUUACGCUAA | -3.24 ± 0.39 | -1.89 ± 0.35 |
| GAUUAGCAAUAUUACGCUCG | -1.11 ± 0.12 | -0.397 ± 0.15 |
| GAUUAGCAAUAUUACGCUCU | -1.26 ± 0.41 | -0.272 ± 0.27 |
| GAUUAGCAAUAUUACGGAGA | -2.78 ± 0.25 | -2.19 ± 0.24 |

| Sequence | self-splicing fitness (ln) (30 °C) | self-splicing fitness (ln) (37 °C) |
| --- | --- | --- |
| GAUUAGCAAUAUUACGGAGU | -2.77 ± 0.19 | -2.5 ± 0.23 |
| GAUUAGCAAUAUUACGGGGG | -4.1 ± 0.34 | -2.72 ± 0.24 |
| GAUUAGCAAUAUUACGGUAA | -1.83 ± 0.23 | -1.5 ± 0.17 |
| GAUUAGCAAUAUUACGGUCU | -3.15 ± 0.32 | -2.07 ± 0.18 |
| GAUUAGCAAUAUUACGUAUU | -3 ± 0.12 | -1.65 ± 0.1 |
| GAUUAGCAAUAUUACGUCCA | -2.04 ± 0.21 | 0.198 ± 0.18 |
| GAUUAGCAAUAUUACGUCGC | -1.91 ± 0.15 | -0.838 ± 0.16 |
| GAUUAGCAAUAUUACGUCGU | -2.56 ± 0.19 | -1.13 ± 0.17 |
| GAUUAGCAAUAUUACGUGAC | -2.89 ± 0.12 | -0.588 ± 0.094 |
| GAUUAGCAAUAUUACGUUGU | -2.91 ± 0.23 | -2.15 ± 0.28 |
| GAUUAGCAAUAUUACGUUUG | -2.64 ± 0.15 | -0.801 ± 0.16 |
| GCAAAGCAAUAUUACGACCA | -0.267 ± 0.15 | -0.678 ± 0.19 |
| GCAAAGCAAUAUUACGAGAG | -2.7 ± 0.095 | -1.89 ± 0.12 |
| GCAAAGCAAUAUUACGAGCU | -3.48 ± 0.16 | -1.5 ± 0.12 |
| GCAAAGCAAUAUUACGAUGC | -3.46 ± 0.24 | -2.53 ± 0.32 |
| GCAAAGCAAUAUUACGCAGA |  | -2.76 ± 0.3 |
| GCAAAGCAAUAUUACGCAGG | -2.33 ± 0.13 | -2.02 ± 0.19 |
| GCAAAGCAAUAUUACGCCUG | -2.21 ± 0.1 | -1.12 ± 0.12 |
| GCAAAGCAAUAUUACGGAAA | -1.88 ± 0.18 | -1.66 ± 0.19 |
| GCAAAGCAAUAUUACGGCAU | -0.675 ± 0.095 | 0.0956 ± 0.1 |
| GCAAAGCAAUAUUACGGGCU | -2.56 ± 0.12 | -2.45 ± 0.2 |
| GCAAAGCAAUAUUACGGGGG | -3.28 ± 0.2 | -1.87 ± 0.18 |
| GCAAAGCAAUAUUACGGGGU | -3.73 ± 0.15 | -2.5 ± 0.15 |
| GCAAAGCAAUAUUACGGUCU | -1.38 ± 0.087 | 0.608 ± 0.1 |
| GCAAAGCAAUAUUACGGUGA | -0.987 ± 0.079 | 0.221 ± 0.098 |

| Sequence | self-splicing fitness (ln) (30 °C) | self-splicing fitness (ln) (37 °C) |
| --- | --- | --- |
| GCAAAGCAAUAUUACGUAGA | -1.64 ± 0.074 | -1.13 ± 0.095 |
| GCAAAGCAAUAUUACGUAGG | -1.52 ± 0.05 | -0.897 ± 0.074 |
| GCAAAGCAAUAUUACGUAUG | -2.9 ± 0.11 | -2.71 ± 0.2 |
| GCAAAGCAAUAUUACGUAUU | -2.65 ± 0.075 | -1.29 ± 0.081 |
| GCAAAGCAAUAUUACGUCAU | -2.25 ± 0.096 | -1.37 ± 0.091 |
| GCAAAGCAAUAUUACGUCGA | -1.83 ± 0.091 | -0.578 ± 0.094 |
| GCAAAGCAAUAUUACGUUGU | -3.71 ± 0.15 | -2.99 ± 0.15 |
| GCAAAGCAAUAUUACGUUUU | -2.95 ± 0.11 | -3 ± 0.18 |
| GCACAGCAAUAUUACGAAUU | -1.19 ± 0.077 | -0.471 ± 0.085 |
| GCACAGCAAUAUUACGAGCC | -3.2 ± 0.28 | -2.01 ± 0.23 |
| GCACAGCAAUAUUACGAGUC | -2.62 ± 0.069 | -1.29 ± 0.065 |
| GCACAGCAAUAUUACGAGUU | -1.81 ± 0.057 | -0.499 ± 0.072 |
| GCACAGCAAUAUUACGAUCA | -0.983 ± 0.13 | -0.209 ± 0.14 |
| GCACAGCAAUAUUACGCACG | -2.06 ± 0.11 | -0.889 ± 0.1 |
| GCACAGCAAUAUUACGCCAU | -3.37 ± 0.12 | -2.42 ± 0.12 |
| GCACAGCAAUAUUACGCCUG | -1.28 ± 0.087 | -0.89 ± 0.1 |
| GCACAGCAAUAUUACGCGUC | -3.73 ± 0.2 | -0.646 ± 0.098 |
| GCACAGCAAUAUUACGCUCA | -1.08 ± 0.088 | -0.585 ± 0.1 |
| GCACAGCAAUAUUACGCUUC | -2.21 ± 0.094 | -1.3 ± 0.098 |
| GCACAGCAAUAUUACGGCUU | -0.432 ± 0.054 | -0.0629 ± 0.064 |
| GCACAGCAAUAUUACGGUUA | -0.902 ± 0.055 | -0.384 ± 0.059 |
| GCACAGCAAUAUUACGUUAA | -1.04 ± 0.055 | -0.544 ± 0.065 |
| GCACAGCAAUAUUACGUUUU | -1.14 ± 0.046 | -0.268 ± 0.065 |
| GCAGAGCAAUAUUACGAACA | -3.11 ± 0.4 |  |
| GCAGAGCAAUAUUACGACGU | -0.995 ± 0.14 | -1.5 ± 0.18 |

| Sequence | self-splicing fitness (ln) (30 °C) | self-splicing fitness (ln) (37 °C) |
| --- | --- | --- |
| GCAGAGCAAUAUUACGAUUG | -4.02 ± 0.28 | -2.95 ± 0.23 |
| GCAGAGCAAUAUUACGCACA | -2.09 ± 0.24 |  |
| GCAGAGCAAUAUUACGCAGU | -3.61 ± 0.29 | -1.86 ± 0.3 |
| GCAGAGCAAUAUUACGCCAU | -3.75 ± 0.4 | -2.78 ± 0.32 |
| GCAGAGCAAUAUUACGCCGA |  | -0.676 ± 0.34 |
| GCAGAGCAAUAUUACGCCUA |  | -2.09 ± 0.3 |
| GCAGAGCAAUAUUACGCUAG | -1.83 ± 0.44 | -1.79 ± 0.2 |
| GCAGAGCAAUAUUACGCUUA | -1.76 ± 0.3 | -1.99 ± 0.3 |
| GCAGAGCAAUAUUACGGCAA | -3.59 ± 0.46 | -3.6 ± 0.42 |
| GCAGAGCAAUAUUACGGGGU | -3.34 ± 0.23 | -3.16 ± 0.31 |
| GCAGAGCAAUAUUACGUAUA | -1.41 ± 0.22 | -2.76 ± 0.47 |
| GCAGAGCAAUAUUACGUCUC |  | -2.17 ± 0.31 |
| GCAGAGCAAUAUUACGUUCG | -1.91 ± 0.14 | -1.99 ± 0.3 |
| GCAUAGCAAUAUUACGAACC | -1.45 ± 0.089 | 0.452 ± 0.1 |
| GCAUAGCAAUAUUACGAACU | -1.11 ± 0.084 | -0.315 ± 0.11 |
| GCAUAGCAAUAUUACGACAC | 0.147 ± 0.14 | -0.214 ± 0.19 |
| GCAUAGCAAUAUUACGACCC | -0.0863 ± 0.27 | 0.324 ± 0.39 |
| GCAUAGCAAUAUUACGAGAC | -2.7 ± 0.32 | -1.59 ± 0.23 |
| GCAUAGCAAUAUUACGAUCA | -2.05 ± 0.34 | 0.131 ± 0.22 |
| GCAUAGCAAUAUUACGCAUC | -3.1 ± 0.23 | -3.22 ± 0.27 |
| GCAUAGCAAUAUUACGCGUU | -2.03 ± 0.11 | -2.14 ± 0.17 |
| GCAUAGCAAUAUUACGCUAA | -2.72 ± 0.27 | -2.49 ± 0.22 |
| GCAUAGCAAUAUUACGCUUA | -1.6 ± 0.14 | -1.18 ± 0.1 |

Reference: the supplement of paper PMC7877785
